Experimental data reported in the supplement of paper PMC9170038.

These sequences were tested on K4 kissing-loop RNA reporter (assay: apparent KD of K4 kissing-loop reporter; higher = weaker reporter binding). Conditions: Eterna round: R107; input ligand: theophylline 20 uM.
Description: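 RNA-MaP round R107: designed RNA switches with theophylline, tryptophan, arginine or FMN aptamers are transcribed on-chip within common flanks. They are titrated with a labelled K4 kissing-loop RNA reporter in RNA-MaP buffer (100 mM Tris pH 7.5, 80 mM KCl, 4 mM MgCl2), without ligand or with the indicated ligand. Median apparent KD per design.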
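Note: bound reporter read as fluorescence of individual clusters on recovered sequencing chips by microscopy, with normalized cluster intensities fitted with a binding model.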

Sequence	apparent KD of K4 kissing-loop reporter [nM]
UAACGGCAACAAGGAUAUCCCAGUGAUGUUGGGAGAUAUUGACUAAGGAGACAUGAUAGGCAUAAUGGAGAAGGUGUGUUGGGAG [theeternabot_exclusion_KL_FMN_B_19]	131
AAAAUAAAGCAGUGAUGUUGCUUAUGAGAAGGAGCGCACGAAAGUGCAGGUAGGUCGCUCAGCCAAGUGGACGAAAACGUCCACA [#OpenEnded 10 #K4Early]	144
GCGGGCCAGACGGCCGCCACUCCGGGCAGUGAUGUUGCGAAUCUUCUACUAGAGUGAUGUUCUACGAGGACCGGGUCGGAACGCG [Exclusion Tryptophan B Gf 14]	502
AAUAAAAUCACGGCCGCCACUGAUUAUUUUAUUAGGAGUGAUGUUCCUAUGACAAUAUACCUUAACAGGACCGGGUGAAUAUUUA [JR_ExcTryptoB_Sub010]	94.4
GCCGUAGAUUGAAGGAGCGCCGCACAUGUCCCGCUUAGUGUAGUGAUGUUACAGUGUCAGCGGCAGGUAGGUCGCAAUCUACGGC	123
CUAAGGGAAGCAGGAUAUCGGUAUUAGUGUGUUAAAUAAACACUCGGGUAGUGAUGUUGCCCGUGGCGAGAAGGGCUACCAUUGG [Laace]	41.4
AAGUGAUGUUGUAGUGAUGUUGUGAUGUUGCAGGAUAUAUAGUGAUGUAGAAGGGUAUGUGCAGUUUUUUUUUUUGAGUGUUGAU [dpdmullin]	43.1
UGUUAUGUAUCAGGAUAUUAGUGUUGUUUGUUUAUGUUAGUGAUGUUGAUAUUUGUUUUAUGUAUUUAAGAAGGGAUUGAGAUGU [kkplmullin]	359

Same assay, conditions: Eterna round: R107; input ligand: tryptophan 2.4 mM

Sequence	apparent KD of K4 kissing-loop reporter [nM]
UGUACCGAGUCAGGAUAUGUCGUCGAAAGACGAAAUGGAGUGAUGUUCCUUAAACUGCGAAAGCAGACAGAAGGGAUUUGGUACU [FmnBS 29 U77]	717
GGAUAGGAUAGAGGAUAUGGGCUAGGCAAGAAUAACUUGUCUAGCAAAUCCAUGAGGAGUGAUGUUCCAGAAGGCUAUCCUAUCG [FmnBX 1 U9+A77]	155
CGAAUGGAACUAUUGAACAUUUGUAUUGGCAAGGAUAUCGGGCUAUCGAGAAGGUGCUAUUUGGGCAGUGAUGUUGCCGAUUUAA [theeternabot_sameState_KL_FMN_A_10]	50
GACACACUUUCAGGUGUCCAGUGACUGGAUACCAGCAUGGAAACAUGCCCUUGGCAGCCAGAACUGGAAGUGAUGUUUCCAGUAA [Theo A Mod Design7 (Brourd)]	330
AGCUCAGAGUGACUCGAUAAGAGUCACAAACGAGGACCGGUACGGCCGCCACUCGAAAUAAAGAGAGUGAUGUUCUCGCUGAGCA [FiskerMod 9 - Jieux - Same State Tryptophan A]	795
UGUAUUUCGGCGGCCGCCACUGACCAUAGCCUUCGAUGGCCAGUGAUGUUGGCCUCUGGCUCUAACAGGACCGGGCCGAAUUGCG [Usvediin]	132
GCAUCCAUGGCAGGAUAUAGGUUCGUGGAGUGAUGUUCCAUAGCCCGAGUGAUGUUCGUUAUCCGCCUAGAAGGGCCGUGGAUGC [whbob_Ex_FMNB__2th214]	212
AGGUACAAAAGUACCGCUAGAUCCACGGAAGGAGCGCCCGAAAGGGCAGGUAGGUCGCCGGGCAGUGAUGUUGCCGGAUCUAGCA [Omei KL Arginine A SS A v6]	139
UCCUGCAAUCGACCACGAAAGUGGUUCGAUACCAGAGUCGAAAGACUCCCUUGGCAGCGAGUGAUGUUCGAGCAGGUAAAAUAAA	472
AAAUUUAAUAUAUUUAAUUAAUUAAGUGAUACCAGACAUUAAUAAGUCCCUUGGCAGCACAAUGCAGUGAUGUUGCUUAUAAUAA [JR_SSTheophyA_Sub009]	76.3
AGUAGUUGGACGGCCGCCACUGGAACAGCUUUGCCAAAGGCAGAGCACUAGAGUGAUGUUCUAGCUAGGACCGGGUCCAACUACA [whbob_SS_Tryp_B_t16]	882
AAGUCAUAGGCAGGAUAUGCUUAGUAUUAAGGCCAUAUAUACGUAUAGAGUGAUGUUUUGUACCAGGCAGAAGGGCUACAUCCGU [FMN B Excl V5 (+2U)]	541
UAAGAAUAAGUAGCAGUGAUGUUGCUACUACGAGGACCGGUACGGCCGCCACUCGAGCCGUACAAAGUAGCAACUAGUACGAAUA [(H1)-(H2)-(Trp1)-(Trp2)-(T)'-(H)'-(T)'']	365
CCAGUUUGAGUGAUGUUCAGGCAUUGGUACGAGGAUAUCGAGGAGUUGAGAAGGCGUACUACUCAACUAUGUAUGAAUACAUACC [FMN A Ex t2]	116
GCCUAGCAGCGAAGGAGCGCCAGGAGAAGAAAUGGAGAGAGUUGAGUGAUGUUCAAAUGGUGGCAGGUAGGUCGCGCUGCUAGGC [#08 K4 Arginine B Same State]	377
UGAGGAGAGGGAAGGAGCGUGAAAGAGAAAGAAUAUAGUGAUGUUAUAUAGAAGAAAGAAUCACAGGUAGGUCGCCCGGAGGAGG [SSArgB.B]	284

Sequence	apparent KD of K4 kissing-loop reporter [nM]
CGCAUACCUGCGCUAGUAGUGAUGUUACAGCGAGGACCGGUACGGCCGCCACUCGUGACGGUCGCAAAACGCGUUGCAGAACACU [theeternabot_exclusion_KL_Trp_A_32]	322
GUCCCAGUGAUGUUGGUAGGCGAGCGGGAUACCAGCGAAGACUCACGCCCUUGGCAGCCCACAUAUCCCGCGUAGGGAUUAGCUC [Same State - Theophylline A (Freestyle 21)]	347
AAACUUGCAGUGAUGUUGCAAGUAGGUGAUACCAGCAUCGAAAGAUGCCCUUGGCAGCACCAUCACUGUAAGUAGGUGCUGUCAA [(H1)-(H2)-(T1)-(T2)-(H)'-(T)'_Design5]	103
AGUGAACGAGCGGCCGCCACUAAAUGAGUGAUGUUCGUGAGUAGUGCUGUUGUCAUGAUUGUUUUUAGGACCGGGUUCGAUGUUG [popplmullin]	719
ACGCGCGCGAGUGAUGUUCGGAGCGGCUGGCAGGAUAUGCCGCAAGGCAGAAGGGUCGUGGCGCGUCCAGGGUAACCUGGACGCG [#2 Exclusion - FMN A Attempt #28 (HarryS)]	455
UACAUUUUAUUAACACUAAAUACAACUGAAGGAGCGACAAUAAAGUCAGGUAGGUCGCAGAAUAAAUGAGUGAUGUUCAUUAUUG [JR_ExcArginiA_Sub016]	51.2
AGCUUGGGUUCGGCCGCCACUCCACCCUUAGAAGUGAUGUUUCUCAUGCAUACGCGUCGUCAGAUGAGGACCGGGAAUGUAGUUG [theeternabot_exclusion_KL_Trp_B_24]	214
GGAUAGGACAUAGGAUAUGGUAGUGAUGUUACCAAACUGGUUAAACAUGUCAGAAAACUGGCAUGACCAGAAGGAUGUCCUAUCG [FmnBX 27 U11+A75]	63.5
UAACGGCAACAAGGAUAUCCCAGUGAUGUUGGGAGAUAUUGACUAAGGAGACAUGAUAGGCAUAAUGGAGAAGGUGUGUUGGGAG [theeternabot_exclusion_KL_FMN_B_19]	138
AAAAUAAAGCAGUGAUGUUGCUUAUGAGAAGGAGCGCACGAAAGUGCAGGUAGGUCGCUCAGCCAAGUGGACGAAAACGUCCACA [#OpenEnded 10 #K4Early]	90.4
GCGGGCCAGACGGCCGCCACUCCGGGCAGUGAUGUUGCGAAUCUUCUACUAGAGUGAUGUUCUACGAGGACCGGGUCGGAACGCG [Exclusion Tryptophan B Gf 14]	289
AAUAAAAUCACGGCCGCCACUGAUUAUUUUAUUAGGAGUGAUGUUCCUAUGACAAUAUACCUUAACAGGACCGGGUGAAUAUUUA [JR_ExcTryptoB_Sub010]	80.8
GCCGUAGAUUGAAGGAGCGCCGCACAUGUCCCGCUUAGUGUAGUGAUGUUACAGUGUCAGCGGCAGGUAGGUCGCAAUCUACGGC	218
CUAAGGGAAGCAGGAUAUCGGUAUUAGUGUGUUAAAUAAACACUCGGGUAGUGAUGUUGCCCGUGGCGAGAAGGGCUACCAUUGG [Laace]	47.3
AAGUGAUGUUGUAGUGAUGUUGUGAUGUUGCAGGAUAUAUAGUGAUGUAGAAGGGUAUGUGCAGUUUUUUUUUUUGAGUGUUGAU [dpdmullin]	61
UGUUAUGUAUCAGGAUAUUAGUGUUGUUUGUUUAUGUUAGUGAUGUUGAUAUUUGUUUUAUGUAUUUAAGAAGGGAUUGAGAUGU [kkplmullin]	258
